Values quoted from earlier work as cited in US20230002502A1, “METHODS AND PRODUCTS FOR REDUCING SIDE EFFECTS ASSOCIATED WITH USE OF IMMUNE AGONIST ANTIBODIES” (South Australian Health and Medical Research Institute …, priority 2019, published 2023).
“Also recorded” adds a separate entry of the source. Where two headings read alike, the source gives them in different places.

System: patients
Conditions: for toxicity reported in clinical trials: patients

In the case of urelumab: an anti-CD137 IAA, IgG4, the “clinical trial results at lower dose” value (8 mg/patient, alone or in combination with anti-PD1) is given as “overall disappointing results”, the “toxicity reported in clinical trials” value is given as “severe dose-dependent liver toxicity; also recorded: high rates of dose dependent liver toxicity, resulting in several deaths” and the “toxicity reported in clinical trials” value (listed as Urelumab) is given as “severe (grade 3 and above) liver damage”.
